Test results reported in the supplement of paper PMC10126150.
± gives the standard deviation of the averaged measurements.

Test system: ATP
Test: switch fluorescence ratio, 500 uM ATP over buffer (Cy3 cluster intensity, sum of 5 cycles each) (fold (ratio)); higher = stronger signal-on switching upon ATP binding; sequences stand for … in TCGTCGGCAGCGTCAGATGTGTATAAGAGACAGTTTTTTTTTTTTTTTTTTTTTTTTT…TC
Conditions: aptamer strand: ATP DNA aptamer (quencher-CACCTGGGGGAGTATTGCGGAGGAAGG + anchor), 100 nM annealed; ATP concentration: 500 uM
How it was run: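 Cy3-labelled switching-strand clusters on a modified Illumina MiSeq flow-cell were annealed to 100 nM quencher-labelled ATP aptamer, imaged in selection buffer, then imaged after 15 min with 500 uM ATP at 22 °C. Five buffer/ATP cycles ran, with NaOH stripping and re-annealing between them. The fluorescence ratio is summed target-cycle over summed buffer-cycle Cy3 intensity per cluster, averaged per switch-domain sequence. Clusters outside 100-1000 RFU were excluded.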
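Further: ATP exposure 15 min at 22 °C before imaging.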

| Sequence | switch fluorescence ratio |
| --- | --- |
| ATTAATGGGT | 1.02 ± 0.027 |
| ATTAATGTTG | 1.054 ± 0.0067 |
| ATTACAACGA | 1.015 ± 0.0032 |
| ATTACATGTA | 0.9871 ± 0.0098 |
| ATTACGAAGA | 1.01 ± 0.011 |
| ATTACGCTGG | 1.01 ± 0.024 |
| ATTACTCTAC | 1.27 ± 0.025 |
| ATTACTTTTT | 1 ± 0.027 |
| ATTAGAAGGT | 0.994 ± 0.051 |
| ATTAGATGAC | 1.02 ± 0.016 |
| ATTAGCACGT | 1.023 ± 0.0031 |
| ATTAGCCCGG | 0.9944 ± 0.00051 |
| ATTAGCGAGA | 1.028 ± 0.0035 |
| ATTAGGAAAG | 0.998 ± 0.028 |
| ATTAGGACGT | 0.984 ± 0.032 |
| ATTAGGGTCT | 0.986 ± 0.025 |
| ATTAGGTTTC | 1.01 ± 0.062 |
| ATTAGTAAGA | 0.975 ± 0.011 |
| ATTAGTCCGG | 0.994 ± 0.03 |
| ATTAGTCGCG | 1.01 ± 0.014 |
| ATTAGTCGCT | 0.978 ± 0.019 |
| ATTAGTGTCA | 1 ± 0.035 |
| ATTAGTGTCG | 1.01 ± 0.046 |
| ATTAGTGTGG | 1 ± 0.033 |
| ATTAGTTCCG | 0.9814 ± 0.0025 |

| Sequence | switch fluorescence ratio |
| --- | --- |
| ATTATAAGGT | 1.06 ± 0.0055 |
| ATTATACAGC | 0.993 ± 0.025 |
| ATTATACTGG | 1 ± 0.033 |
| ATTATATCCC | 1.06 ± 0.026 |
| ATTATATGGT | 0.98 ± 0.029 |
| ATTATCGTAG | 0.994 ± 0.035 |
| ATTATCTAAT | 1 ± 0.017 |
| ATTATGGACG | 1.06 ± 0.073 |
| ATTATGGGGG | 0.996 ± 0.036 |
| ATTATGGGT | 0.9931 ± 0.0086 |
| ATTATGGTTC | 1 ± 0.021 |
| ATTATGTCTT | 0.9878 ± 0.0094 |
| ATTATTATGG | 1.01 ± 0.015 |
| ATTATTGATA | 0.997 ± 0.036 |
| ATTATTGGCA | 0.999 ± 0.0024 |
| ATTATTGGGC | 0.981 ± 0.035 |
| ATTATTTTAC | 0.976 ± 0.036 |
| ATTCAACGGT | 1.02 ± 0.0048 |
| ATTCAAGCCT | 1.15 ± 0.047 |
| ATTCACATAT | 1.11 ± 0.02 |
| ATTCACGGGC | 1.08 ± 0.035 |
| ATTCAGAGTG | 0.965 ± 0.02 |
| ATTCAGATCG | 0.999 ± 0.034 |
| ATTCAGTTAT | 0.997 ± 0.021 |
| ATTCAGTTGG | 0.9776 ± 0.0071 |

| Sequence | switch fluorescence ratio |
| --- | --- |
| ATTCATAGGT | 0.992 ± 0.014 |
| ATTCATGCTC | 1.03 ± 0.031 |
| ATTCATTGTC | 1.09 ± 0.11 |
| ATTCCAAGTG | 1.03 ± 0.056 |
| ATTCCCGGGG | 1.06 ± 0.059 |
| ATTCCCGGTC | 1.01 ± 0.066 |
| ATTCCGATTG | 1.07 ± 0.031 |
| ATTCGGAATA | 1.06 ± 0.016 |
| ATTCGGGAAG | 1.003 ± 0.0078 |
| ATTCGGGACC | 0.973 ± 0.019 |
| ATTCGGGGGT | 0.993 ± 0.023 |
| ATTCGGTCGA | 0.976 ± 0.039 |
| ATTCGTTCGA | 0.9955 ± 0.0033 |
| ATTCGTTTGT | 0.9869 ± 0.0038 |
| ATTCTACGGA | 1.02 ± 0.021 |
| ATTCTAGGA | 0.985 ± 0.02 |
| ATTCTAGGTA | 1 ± 0.015 |
| ATTCTATATC | 0.97 ± 0.021 |
| ATTCTCGTGG | 0.997 ± 0.036 |
| ATTCTGATGC | 1.05 ± 0.0092 |
| ATTCTGCGGA | 1.01 ± 0.019 |
| ATTCTGGGGA | 0.988 ± 0.026 |
| ATTCTGGTGG | 1.01 ± 0.046 |
| ATTCTTTACA | 1.06 ± 0.014 |
| ATTCTTTTGC | 1.03 ± 0.06 |

| Sequence | switch fluorescence ratio |
| --- | --- |
| ATTGAAATCA | 0.987 ± 0.018 |
| ATTGAACGGA | 1 ± 0.059 |
| ATTGAAGCCT | 1.15 ± 0.013 |
| ATTGAAGGCA | 0.966 ± 0.011 |
| ATTGAAGTGC | 1.01 ± 0.02 |
| ATTGAATAGG | 1.0089 ± 0.0003 |
| ATTGAATTAG | 0.961 ± 0.011 |
| ATTGACCCCT | 1.08 ± 0.015 |
| ATTGACGATC | 0.994 ± 0.016 |
| ATTGACGTAC | 1.76 ± 0.083 |
| ATTGAGCGGT | 0.983 ± 0.039 |
| ATTGAGGCTC | 0.985 ± 0.012 |
| ATTGATGAGT | 0.993 ± 0.04 |
| ATTGATGATT | 0.993 ± 0.0075 |
| ATTGATTAGG | 0.988 ± 0.043 |
| ATTGATTCAA | 0.996 ± 0.02 |
| ATTGATTGCT | 0.9989 ± 0.0036 |
| ATTGATTTTT | 1.01 ± 0.019 |
| ATTGCATTAA | 0.985 ± 0.033 |
| ATTGCGGGCC | 1.02 ± 0.047 |
| ATTGCGGGGA | 0.9848 ± 0.0072 |
| ATTGCTTTTG | 0.99799 ± 0.00028 |
| ATTGGAAGAC | 1.06 ± 0.12 |
| ATTGGACATC | 1.11 ± 0.11 |
| ATTGGAGCGT | 0.986 ± 0.0013 |

| Sequence | switch fluorescence ratio |
| --- | --- |
| ATTGGAGTAT | 0.9776 ± 0.0089 |
| ATTGGCACGG | 0.986 ± 0.034 |
| ATTGGCTAGG | 0.999 ± 0.037 |
| ATTGGCTGAC | 1.13 ± 0.029 |
| ATTGGCTGGT | 0.9998 ± 0.0052 |
| ATTGGCTTTT | 0.965 ± 0.011 |
| ATTGGGAAGG | 0.965 ± 0.039 |
| ATTGGGATGG | 1 ± 0.014 |
| ATTGGGCAGC | 1 ± 0.027 |
| ATTGGGGCTT | 1.01 ± 0.018 |
| ATTGGGGGTA | 0.977 ± 0.028 |
| ATTGGGGGTT | 0.978 ± 0.018 |
| ATTGGTAGGG | 0.9858 ± 0.004 |
| ATTGGTGCT | 1.001 ± 0.007 |
| ATTGGTGTAA | 1.01 ± 0.015 |
| ATTGGTTGGT | 0.978 ± 0.048 |
| ATTGTAATTT | 1.01 ± 0.026 |
| ATTGTACGGT | 1.03 ± 0.013 |
| ATTGTAGTCA | 0.973 ± 0.019 |
| ATTGTATTTT | 0.979 ± 0.022 |
| ATTGTGAGGG | 0.993 ± 0.011 |
| ATTGTGGATC | 1.03 ± 0.031 |
| ATTGTGGGGC | 1 ± 0.022 |
| ATTGTGGGGG | 0.991 ± 0.016 |
| ATTGTTATTG | 0.967 ± 0.065 |

| Sequence | switch fluorescence ratio |
| --- | --- |
| ATTGTTCTGG | 1.004 ± 0.0021 |
| ATTGTTGAAT | 0.993 ± 0.015 |
| ATTGTTGGAT | 1.013 ± 0.0067 |
| ATTGTTTTAC | 1.02 ± 0.014 |
| ATTGTTTTAG | 1.01 ± 0.025 |
| ATTGTTTTCG | 1 ± 0.029 |
| ATTTAAAATG | 0.994 ± 0.033 |
| ATTTAAGGTA | 1.01 ± 0.024 |
| ATTTAATATG | 0.97 ± 0.011 |
| ATTTAATCCT | 1.09 ± 0.038 |
| ATTTAATCGC | 1.01 ± 0.011 |
| ATTTACAAGT | 1.003 ± 0.0063 |
| ATTTACAGGT | 1.033 ± 0.0098 |
| ATTTACATTA | 1.03 ± 0.021 |
| ATTTACCGGT | 1.03 ± 0.022 |
| ATTTACGGCA | 1.11 ± 0.021 |
| ATTTACGGTG | 1 ± 0.022 |
| ATTTATATCT | 1 ± 0.015 |
| ATTTCACTGA | 1.03 ± 0.011 |
| ATTTCACTTT | 0.9915 ± 0.0085 |
| ATTTCAGAGG | 1.02 ± 0.017 |
| ATTTCAGCGA | 1.09 ± 0.014 |
| ATTTCAGGGG | 1.09 ± 0.061 |
| ATTTCAGGGT | 1 ± 0.015 |
| ATTTCGAATG | 0.9827 ± 0.0076 |

| Sequence | switch fluorescence ratio |
| --- | --- |
| ATTTCGATAT | 0.979 ± 0.038 |
| ATTTCGATGT | 1.03 ± 0.031 |
| ATTTCGGAGA | 0.971 ± 0.011 |
| ATTTCGGGAG | 1.01 ± 0.052 |
| ATTTCGGTCA | 0.9919 ± 0.0066 |
| ATTTCGTGCG | 1.01 ± 0.061 |
| ATTTCGTTGT | 1 ± 0.07 |
| ATTTCTAGAT | 1.024 ± 0.0093 |
| ATTTCTCTTG | 0.998 ± 0.025 |
| ATTTGAAGTA | 1.01 ± 0.04 |
| ATTTGACCAT | 1.13 ± 0.18 |
| ATTTGACTTC | 1.12 ± 0.19 |
| ATTTGAGAAA | 1.01 ± 0.025 |
| ATTTGAGGGG | 0.998 ± 0.035 |
| ATTTGAGGTA | 1.01 ± 0.012 |
| ATTTGAGGTG | 1.03 ± 0.038 |
| ATTTGATCTG | 0.985 ± 0.014 |
| ATTTGATTCT | 0.984 ± 0.023 |
| ATTTGATTGT | 0.98 ± 0.034 |
| ATTTGCAAAG | 1.12 ± 0.21 |
| ATTTGCATGG | 1.09 ± 0.2 |
| ATTTGCTCGG | 1.036 ± 0.0097 |
| ATTTGGCGT | 1.01 ± 0.018 |
| ATTTGTATTT | 0.992 ± 0.026 |
| ATTTGTCTGG | 0.9643 ± 0.0028 |

| Sequence | switch fluorescence ratio |
| --- | --- |
| ATTTGTGAAC | 1.02 ± 0.024 |
| ATTTGTGAGG | 0.9782 ± 0.0093 |
| ATTTGTTCTG | 0.962 ± 0.038 |
| ATTTGTTGCT | 0.981 ± 0.025 |
| ATTTGTTGT | 0.973 ± 0.052 |
| ATTTGTTGTG | 1.01 ± 0.041 |
| ATTTTAATAA | 0.99 ± 0.017 |
| ATTTTAATCG | 0.985 ± 0.03 |
| ATTTTAATGA | 0.934 ± 0.028 |
| ATTTTACCTC | 1.05 ± 0.13 |
| ATTTTAGCTC | 0.984 ± 0.015 |
| ATTTTATACA | 0.996 ± 0.03 |
| ATTTTATAGT | 1 ± 0.055 |
| ATTTTATGGG | 0.999 ± 0.019 |
| ATTTTATTAT | 1.01 ± 0.024 |
| ATTTTATTCT | 1.003 ± 0.0076 |
| ATTTTCATAT | 0.98 ± 0.021 |
| ATTTTCATTA | 0.996 ± 0.0096 |
| ATTTTCGCAT | 1.19 ± 0.051 |
| ATTTTCTATG | 0.978 ± 0.029 |
| ATTTTCTTAG | 0.999 ± 0.018 |
| ATTTTGAGGT | 0.987 ± 0.018 |
| ATTTTGATTT | 1 ± 0.028 |
| ATTTTGCTCG | 0.999 ± 0.021 |
| ATTTTGCTGG | 0.999 ± 0.011 |
